# Measured values taken from the DeepSol protein solubility set.
# Assay: soluble on expression in E. coli; label from the status in PepcDB or PDB records
row,Sequence,soluble on expression in E. coli
1,MGSSHHHHHHSSGLVPRGSHMATADPYDALRRRWLGITLGTGYDPAAEPYASRLAETGERAREHRATMAPTPTSLWPGHPFDPPAGITFAYGRLWTMTEAYVQEGTGATGDPALLADILRGLDHLSATVYHPATTRYGNWWEWQIGSPRLLMDITAALYDHLGADRVAAACAAVDHFVPDAMLGAYTGTSTGANRVDLCRSVALRGVLGRAPAKIALARDALSPVFPYVTKGDGLYADGSFVQHTWVAYSGTYGQVMLDGLGRLFTLLAGSEWEVTDPGRQLVLDSVEHAYAPLIHDGLVMDTVNGRAISRGYLKSDDLHVMRSDHFHGQQLIAAMAVLAGGASNAERERWHARIKGWIERDTVTPVLTAPQFPVADLTRLHAIADAPGEAAPEPVGHHLFAAMDRAVHRRPAFTAGLAMASDRIAHYECGNGENPRGWHTGAGMLTWWANGTRADQYTDWFWPTVDWYRLPGTTVSTKRLADRAGGEWGAPKPDVRWVGGATDGEYAAVGQHLKGLGSTLEARKSWFFLDDAVVCLGAGITCADGVPVETVVDNRNLGEGGTQALVRGRHWAHLEGHGGWIVPGGALRTLREDRTGAWSDINTTSTTERRTRRWQTLWLDHGTDPAGADYVYTVMPGASRAALARRAADRHWLTVLANDDRRQAVSVPSLGLTAANFWQAGTAGPLTTTAGASVLVRRRGRTATLRVSEPPRTGEALEIVWDHPVGAVLRADETVEILATGRRLHLRVTPGVVCTTHECEVTLS,soluble
2,MIATPNILAPLHDILPLTKGEARISFIGSRSFLLEAPGEFDLPAQRWIWALSQSVSNWPDVAEIIPGMTNLLTIFKETPDDPDSVVGRLRDAWNSAQSLDLTGKTIEIPVHYGGEYATDLAAICDFSGLSDREVVRLHHEATYRVFALGSAPGFGYLHGLDPRIYMPRKTVPSIRMEKGCVTIGGMQTGVAMLTGPNGWNSIGYADLQMFDPESSVPALMAPGDIVRFVPARIELLEHHHHHH,not soluble
3,MLERTQVFVDTSYLLASFYNSWEIGARAQLEIDLPEVVATLGNMIHNQLGQPVHRQFWYDGIPESGPHRYQRALRTCDGVQLRAGQLIEWGERRTQKAVDTRLVADMVLAGVRREFTDIVLVSGDADMIPGVQEAVNAGVRVHLYGFGWDSMSSALRHACDSTTILDPREDFSDCMQLEILEGPLPPVVRNPDEEGEEGEFPAAAAEATAAAAEAAADTTVTTDATDNEATPPVPTPEQVAEKSQREAPAAPIPCPQRPGEPALSEEDCMAEVPAKMPKPVAPKPGAHLPAETPAPAPTATPAPTPSSRTVRVTSTVEESLEVTVSNSAEPNVEAEEADTPATPRPAPNPSMMAPRRKLRSRYVPLPNEVWASAGYQTPFDVGQQYALWWFDNAATPEQRDSAHLLSGGGLPPEIDRPLLQFACETLHEYTLTEAQRVGLRDGFHSGIRGVLINNQNS,not soluble
4,PRAAARGGGGDAGTRGRGFVQAGRGAPMAECGRGGAAGGALPTSPGPALGAKGALKAGVGEGGGGGGRLGHGRARYDSGGVSNGDCSLGVSGDEARASPTRGPRGVALAPTPSAVVCTLPRESKPGGLPRRSSIIKDGTKQKRERKKTVSFSSMPTEKKISSASDCINSMVEGSELKKVRSNSRIYHRYFLLDADMQSLRWEPSKKDSEKAKIDIKSIKEVRTGKNTDIFRSNGISDQISEDCAFSVIYGENYESLDLVANSADVANIWVTGLRYLISYGKHTLDMLESSQDNMRTSWVSQMFSEIDVDNLGHITLCNAVQCIRNLNPGLKTSKIELKFKELHKSKDKAGTEVTKEEFIEVFHELCTRPEIYFLLVQFSSNKEFLDTKDLMMFLEAEQGVAHINEEISLEIIHKYEPSKEGQEKGWLSIDGFTNYLMSPDCYIFDPEHKKVCQDMKQPLSHYFINSSHNTYLIEDQFRGPSDITGYIRALKMGCRSVELDVWDGPDNEPVIYTGHTMTSQIVFRSVIDIINKYAFFASEYPLILCLENHCSIKQQKVMVQHMKKLLGDKLYTTSPNVEESYLPSPDVLKGKILIKAKKLSSNCSGVEGDVTDEDEGAEMSQRMGKENMEQPNNVPVKRFQLCKELSELVSICKSVQFKEFQVSFQVQKYWEVCSFNEVLASKYANENPGDFVNYNKRFLARVFPSPMRIDSSNMNPQDFWKCGCQIVAMNFQTPGLMMDLNIGWFRQNGNCGYVLRPAIMREEVSFFSANTKDSVPGVSPQLLHIKIISGQNFPKPKGSGAKGDVVDPYVYVEIHGIPADCAEQRTKTVHQNGDAPIFDESFEFQINLPELAMVRFVVLDDDYIGDEFIGQYTIPFECLQTGYRHVPLQSLTGEVLAHASLFVHVAITNRRGGGKPHKRGLSVRKGKKSREYASLRTLWIKTVDEVFKNAQPPIRDATDLRENMQNAVVSFKELCGLSSVANLMQCMLAVSPRFLGPDNTPLVVLNLSEQYPTMELQGIVPEVLKKIVTTYDMMIQSLKALIENADAVYEKIVHCQKAAMEFHEHLHSIGTKEGLKERKLQKAVESFTWNITILKGQADLLKYAKNETLENLKQIHFAAVSCGLNKPGTENADVQKPRRSLEVIPEKANDETGE,soluble
5,MGSDKIHHHHHHMFGLIPKEEKFFAMFKDMAANIVTGGKLLKQMLDSYDDPQASQKKIKDVEHACDAITHDIIQKLNKSFVTPFDREDIYALAAALDDIVDLIDASAQRFIMYNVEKPTPEAKELAFLILQGCLAIEKAVSHLGEKFEHIAEHCVEVNALENEADRVCREAISRLFDEEKDPIQLIKWKEIYETLERATDKCEDAANILESVVVKNA,not soluble
6,MGPKRRQLTFREKSRIIQEVEENPDLRKGEIARRFNIPPSTLSTILKNKRAILASERKYGVASTCRKTNKLSPYDKLEGLLIAWFQQIRAAGLPVKGIILKEKALRIAEELGMDDFTASNGWLDRFRRRRS,soluble
7,GPGSMTALSLALGIHDQATTKFGSKDFCDAVEAEAAAANAHQYRMFLLAMETLLQRQWEHYCFHGGNHITKSQQLEEKRLCRYFSVHCMNMEGRGCRDERKHRKLFGSGAAGPLIDFIYRLICHSHCSIECYPITLALTGRFFVEMRKESVATEYEAAVDHLPCVFAVLLLITAKYRDDNFRSNRYFSQLAELSLMEWNALERLVIRVLRFNVNVPFYEYVAYEKLLLKEMMRQEEKKCGFPSIDQSPRSEKMESLMHLDSKNDMSMLFFDHVEMAMKDNASFHSCGVTASSPSLRSQCPLMSVEDSPVSWRQGV,not soluble
8,MSLPNEQPGTGPADTTLEQQDTAAAEVGHPRRIRSFVRRAGRTSTGQQRAIDELGPRFLLPYAAAPLDWEAAFGRTGARRIFEIGFGMGETSAHIAQLRPDDDFLGVEVHEPGVGALLKLIGERGIGNVRIVSHDAVEVLAQMIPEGTLDGIHVFFPDPWHKKRHNKRRLIQGPFVARLAAHLRPGGYLHCATDWEEYAHQMLEVLSAEPLLENTADGFAPRPDYRPVTKFEKRGLRLGHGVWDVVFRKREGHHHHHH,not soluble
9,MKCSKCGREAVYFAKYEGKYYCHKHFNEMVESKVKRTIRKYRMIKKGERIGVAVSGGKDSVVLLHLLAKLRKKFPFEIVAITIDEGIKGYRDKSIKVAKKNAELLGVEHHIYRFKDYIGFTLDETVEIMGARGERLGACSYCGVWRRWLLNKAAEELKVDKLALGLNLDDEVQMFLMNLMRGDVARLGRTGPYYEVIHEGLVPRIKPLREVPEKEIVLYAVLNNIEVDLSECPYAVEAFRAEIRDWLNEMEEKHPGTKYQLLRSYDKIFPLLAKTYAKKVKLNRCKICGQPTSGEICKACQFRLQVKERAEKLKFSLSQR,soluble
10,KPFNDEKTAKIAEEVQQFYESNATISLNEYLENVGELGYELYLTDGAEKSTYYGGAFRKKDLPDKTIKQVLDGETYHGIDSFDTGIFITGFFDNDVRNTIGVPVQADGKQLALFIRQDPEKQFGE,not soluble
11,MELSADYLREKLRQDLEAEHVEVEDTTLNRCATSFRVLVVSAKFEGKPLLQRHRLVNECLAEELPHIHAFEQKTLTPEQWTRQRRE,soluble
12,PGAPRRLIDAALAAGAQGLVIEAMGSGNVGTDIGVALGEALDAGIPVVISTRVPRGEVFGAYGGAGGGKTLASKGAVNSTYFRSGQARVLLAIAIASGVHPATLL,not soluble
13,MHHHHHHSSGVDLGTENLYFQSNAMKHIQINPSILSADLARLGDDVKAVLAAGADNIHFDVMDNHYVPNLTFGPMVLKALRDYGITAGMDVHLMVKPVDALIESFAKAGATSIVFHPEASEHIDRSLQLIKSFGIQAGLALNPATGIDCLKYVESNIDRVLIMSVNPGFGGQKFIPAMLDKAKEISKWISSTDRDILLEIDGGVNPYNIAEIAVCGVNAFVAGSAIFNSDSYKQTIDKMRDELNKV,soluble
